A short description of the data set: soluble on expression in E. coli; label from the status in PepcDB or PDB records.
Turning to “GMSESNRQRATGLVQAYYEAFNRGDWDAMLAFLAEDVAHDLNQGPREIGRAAFASFLQRMNDSYREQLRDIVVTANDEGTRVGAEYVVHGVYHTTDEGLPDANGQTYVLPGGAFFDVRDGQITRVTNYYNLQEWIAQVSR”, the “soluble on expression in E. coli” value is on record as “soluble”.

Regarding “GMSHSLKDFLEACETLGTLRLIVTSSAAVLEARGKIEKLFYAELAKGKYANMHTEGFEFHLNMEKITQVKFETGEAKRGNFTTYAIRFLDEKQESALSLFLQWGKPGEYEPGQVEAWHTLKEKYGEVWEPLPVQL”, the “soluble on expression in E. coli” value is “soluble”.

With “GMSSSDRYMQRGVSSQKEDVHKAIKSIDKGIYPRAFCKIIPDILGGDPEYCNIMHADGAGTKSSLAYVYWKETGDISVWKGIAQDAVIMNIDDLICVGAVDNILLSSTIGRNKNLIPGEVLAAIINGTEEVLQMLRDNGIGIYSTGGETADVGDLVRTIIVDSTVTCRMKRQDVISNENIKAGNVIVGFASYGQTSYETEYNGGMGSNGLTSARHDVFNNVLASKYPESFDPKVPENLVYSGEMNLTDPYLNVPLDAGKLVLSPTRTYAPLMKEIIHQYKGKLDGVVHCSGGGQTKVLHFTDATTHIIKDNLFDVPPLFQLIQGQSNTPWEEMYKVFNMGHRLEIYTDAAHAEGMIAIAKKFNIEAKIIGRVEAPVAGKRLTITGPQGTEYTYA”, the “soluble on expression in E. coli” value is on record as “soluble”.

On to “GMTALRQDIDPNGLLEYSVVYTDRALNHMSKAFQEVMNDLLSNLKTVYNAEAAVIIPGSGTYGMEAVARQLTIDEDCLIIRNGWFSYRWTQILEKGKFAKSSTVLTAERTEDTEAPKPFAPVDIETAVAKIKEDKSAIVYAPHVETSSGIILSEEYIKALSEAVHSVGGLLVIDCIASGCVWLDMKELGIDVLISAPQKGWSSTPCAGLVMLSAAAIKKVESTESNCFSLDLKQWLTIMRAYENGGHAYHATMPTDSLRQFRDAILEAKEIGFDILRDAQWELGNRVRKVLTDKGIESVAAEGFEAPGVVVSYTERDDMHKGSAFAEAGLQIAAGVPLKVGEPDNFKTFRLGLFGLDKLTDIDGTVERFEKALDEVLAK”, for which the “soluble on expression in E. coli” value is given as “soluble”.

In the case of “GMTQTTPQPDPSRLRDELVRLHGKASPEWDSLVRLDPRFVDAYLKFAGVPQRRNHLDDKTRAFIALAADACATQLYAPGVARHIERALSFGATREELIEVLELVSTIGIHTSNVGVPVLLEVLEEEGLRKGAPPLDERRQKLKAEFETNRGYWHPTWEGLLELDPDLFEAYVEFSSVPWRTGVLSPKIKEFMYCAFDASATHLYVPGLKLHIRNALRYGATAEELMELLEIVSVTGIHGAELGAPLLEAALKRSGAAAGEPHA”, the “soluble on expression in E. coli” value is listed as “soluble”.

Turning to “GMVGINTDTENISELLKTYWSIQRISAGYADQNAASLGLTIQQLAMINVIYSTPGISVADLTKRLIITGSSAAANVDGLISLGLVVKLNKTIPNDSMDLTLKLSKKGEDLSKRSTANAFMYKAMMKVFENLTENEIEELIRLNKKVETLLKKSK”, the “soluble on expression in E. coli” value is reported as “soluble”.

As to “GNFGWSSYLTYSLNRNKVVELLRNYEDPYTHELTSLDRIDMGGTSMYKMILTEGGSIGDIYVNTLRTDEHGAIYVHPSDQVVVTQPDEFVKAGNSAPKYNLGWGNTFSYKGLSLGFLFTARVGGVVVSQTQATMDAYGSSKATAIARDNGGAIVNGRPIGAEDYYTKIGGAGAQGGIGSMYTYSATNVRLAELSLGYDIPINKYVDWIKGLNVSFIGKNLFFLYRKAPFDPELTASTGTYFQGIDMFMSPSLRNLGFSVKVNF”, the “soluble on expression in E. coli” value is given as “not soluble”.

“GNMDSKAVEELSATECHQWYKKFMTECPSGQLTLYEFKQFFGLKNLSPSANKYVEQMFETFDFNKDGYIDFMEYVAALSLVLKGKVDQKLRWYFKLYDVDGNGCIDRGELLNIIKAIRAINRCNEAMTAEEFTNMVFDKIDINGDGELSLEEFMEGVQKDEVLLDILTRSLDLTHIVKLIQNDGKNPHAPEEAEEAAQ”: the “soluble on expression in E. coli” value is “soluble”.

For “GPGPAIGEVIGISVNDPRVKEIAEFALKQHAEQNLILAGVDAGQIIKGIPHWDNYYNLILSAKHSPHEFSKFYNVVVLEKASDNSLKLVAFVPLF”, the “soluble on expression in E. coli” value is on record as “soluble”.

Turning to “GPGSMAEEKIKIIVVGSVKSGKTTITNFLSGTRETATSKYYETNPLRIVETEIELDSMNFTDRRVVFSGGDAKTKRVLVQIWDLSGNSKHQAGWPAVANKADGIIFVFNPALKNGEKELSLWHKTFAVNQSELDALGNFAVRVPDKHCLVFAHHSTPPSNVAGEGLPSMPKGLEKIKVLETSLDYHSDNFKAAFDKLIESIVVARMEAEEDEVLQREGRMHF”, the “soluble on expression in E. coli” value is “soluble”.

For “GPGSMAFGNASKGTDDYTPEEHLTAAVMEYKKLEAANQNSVEHMYNVLSSPFKIGSKPCEAIRGDALRCLSEIIGNFTAKSTSGTDGSTVMANSASIVSQELPPIHRCYESVLHYESCVLERTLSRHNSMVATFEARRLREADSAREAAAAGGDI”, the “soluble on expression in E. coli” value is reported as “not soluble”.

Regarding “GPGSMCSPIADNADMIVPSADTCCPNTVFERVLRCACIVMRVGDDPGYIWTPQRLGAGSFGTVTLAYRHEGDAVWRKTAVKRISLRKETRLSAVLEKVRCTGREVALCRRAGVSPHVVPMYKPWFDCREGVIALPMDAGDFSLEQYAVHCGFRFPPLALLSMCAQCARAVAHLHRRGVVHRDVKPDNFVVNVFDTVGGAGAGGDGDCGEARPPFVRILDFGLACGVEEVEQELKRCVGTPHYMAPETFSHLCDCDVPAACDVWSLGVTLFRLATGVFPVFDQDVTASWPPASASSARLGVPRLRSPWPRVVERCPAPW”, the “soluble on expression in E. coli” value was “not soluble”.

For “GPGSMDTIEFLHTVGKLKETMRTGWVETGVHQPESVSDHMYRAALLCMMCPDSSLNRDRLVRMALCHDVGESIIGDISPKMGVPAAEKHKREKEAILHLRGLLPHDSPLEKELQELWEEYETQGTPEARFLRDIDLLEMVTQAHAYEKTHPELNFDSFYVSGEKIKHPWVRSIYDNLVSTRPSRKS”, the “soluble on expression in E. coli” value is “soluble”.

In the case of “GPGSMDVARTMRATAGGKAFAVVAAEQTAGRGTGGRTWTSPKGNLYMTVGVPQLGQPPCLKEELVPVLPLICGLACRRAVLEVLHLDGALAKASVAADAAKAVATKWPNDIIYNHKKIGGTLIESDGDYLIIGIGMNIAVAPQMTDAGREATMINTIAEDFGVKSCPPRDLANAIWCHLFDICSSPEWTRELVIESFDKVMDKSLKLHKRLPGGRDPEELTAVSLNSWGHLKVRHADGTVEDLSAEYLF”, the “soluble on expression in E. coli” value is recorded as “not soluble”.

For the sequence “GPGSMESQKRMMWNLKGRSAVAALDPSTRHRIMQSHAMASSFHKPLLATLEVLITPQYVGGLTGPLQKPEPFICHVTRLLQITPDPSIVLAMLHQDVHKYLRVAALFIIRLIGNEAMMREAMRVGWEDYRKIRVYGYVEDLAGTIDSKENNAPDEEEGFVRAPAYGIMCVDEITDRLFNVGESDINKNGGSGNLWLGLRLPPILL”, the “soluble on expression in E. coli” value is given as “not soluble”.

With “GPGSMFHRTTPEEEVRKWTRSLRSEQRKIELQITKIRREEAKVKLSMKQAAKQNDQVVMRMLAKEMIRSRKAVNRMYASKAQMNSVSMQLQNQASQMKMSGSLKKSGEIMKEMNSLVKVKEVQQSMMAMSKEMVKAGLIDEIMNDTIDEALDDDISDTELEDEVNKVVMDVVQGQMDGARVGASRIPAQQQQQQETAEEEEDELMEKLNALRNS”, the “soluble on expression in E. coli” value was “soluble”.

For the sequence “GPGSMFYKIVLQRTVNVKPADLCNTLNRSLLTFLREAVEGKPLPSPDSIASIALDYVTASKSSAVVIAVLDILNAETLQGKVLDDGSVSFRLTYEAMVLKLHRGEVLDLLVSDVDETGFWASVYGVNKLFVNRNQMGEDMKTGKSEWSFEAETAAWVSNDDRRSIKKDTMVRLRVIAETPQSERGMAVGTIGAPFLGPRVGSY”, the “soluble on expression in E. coli” value is on record as “not soluble”.

“GPGSMGAVKFQLYKTLGVPMKSSIKDITRAYRHLALKYHPDRNPEGVEKFKSISNAYAVLSDPERRAAYDLTGFLSDSADSSHAMSDEAARQQRSAELADQVRTFFATYAGSAEERLDVVRGYEKCRGDFKKMVREYLLFDNGVEAEVQRLHRLVSTLIELGNLSPTPAWKSTSTPEALLRLEKAMHRERQEAENVLKDMAGSGTGAAGAADGDLSSLQVMIRQRQQSSYESMLNHLESKYVTKKSNARESSKRTREAAPTARKDECASKKHRKASHHR”: the “soluble on expression in E. coli” value was “soluble”.

Regarding “GPGSMGVALTHGLQRQRQQRTAAGHRSANRRGKRGLPPSLLGRLCMFVFVWMHLAEERERRECRLQGKKVFLEESSAGSSRSCMRRRHVCGVRACAGRRGCFASSVISLRCWTSSQSAVVAALTRLRVSSFSAPHLFRLARSAAPTREAASTKYFIDSLAAHSSRLIGVRAPLAHTHVHLGDCIDSTTSACVCGEEIHHHRAQPGVTVSLCTPFSLSHTPSTAWAPLLPADKHHMQASPVLAGAAVRRTATASVGSEPRTNLPFLINVVKKAQKSANTVVASTPALSSMSSTKEPPIQAAAFKPYPLLSPGEVKQAAGSSLLYKDDVCVLVNDAFPKSMVHCLVMPLDLRLQSLNALTKKDAPLLRHMLHVGDEYVRYLKTAVPHTYTARRFIAGFHALPSLPMLHMHVLSTDLDSPCLKNKKHYNSFATFFFLTGDRVLDDLERHGRVTLNQDVTRLRQMEEQDMKCLWCGTALPSVPAMKSHIQCCPQNKAVEKSS”, the “soluble on expression in E. coli” value is given as “not soluble”.

For “GPGSMGYRLLRDNVFKASCAKDSDELRARREPTMLYKEDQLVAPASGTERRYTLVLDLDETVIYAREGPLYARAYLKELLSFIRKNFEVIVWTAGEREYAECILEEINIRNTVRHLIHRHKTWFSFDDYTKDLTKLGRNLDYVIIIENSPDCVRTNPQNGIIVDDFRVSQTPPMEEAEAAWEGDGNNRERKAGSRSDSKTRRQVTDRTLLLLREVLKAMVESGETVPDFLAKCPLLTQRRVIGSDGSQIQTYHLGTRRKRGIPQLCASSPKRRRVTKESAPGATCTS”, the “soluble on expression in E. coli” value is “soluble”.

Take “GPGSMHTKVLAPLAGNRIQAAHKFPQVRLQPTLHRLMTRRRQCNLPLRLFHPSSVDFAKHELEAGRIVEVRRDDNSLVALGFYEPHLERVDVFDMTANLAAMLPAISEDFFMARVHEAWERRRRILPQTQSNTYRVVNGYADSLPSLFVDVFSESFVRVVATSFGAERLVTPLLDFLSRRGAEDVLLDTPTLGDAARVSIVTPTISLPQMYVESGVSHLWLRPDMRMPSTDNLFLINPAHRRTRRMMRDVGKGKRVLTIYDRSGSAAMNAVMTAKHVTVVHREETSLEWARTNLICNHSASVFKTCETVCCDPAELRVRHQQDVVYVECHPKFLSTSNQWAELVRSLANNKVIGVGTMLIVAQEEAPLGVHDLLPRRKVFYEGDESKANQDCPMKRRPLADVLRNALEKCHLRLKFLRAFSVACDHPLLPEAESASFSLVYLVEGPALEQVFRVSASSHRTECTDEAA”: the “soluble on expression in E. coli” value is on record as “not soluble”.

Consider “GPGSMIFGSEPPLYLKPVGRRGLRRHEADVLQHYPGYSHPVVQLRGSEGYIGDSHRLHPRLTAAEELRHERELGAERRQRVVEVRRRRHCEREANLAQRREDEFQREQRHKAQLAGLCIRNEPGDGRDTITQQYRTEDARRHYEYKHELEKHRYFARQQRLREKTHPHGYNILTGEALPSTVVPPKPSIPSDTQLFAVQNGD”, for which the “soluble on expression in E. coli” value is listed as “not soluble”.

Consider “GPGSMIYSGEIENGQMHGRGCLQYPNKEKYDGDWVFGKRHGTGVYVYADGSRYEGEWVDDKVHGNGACYYTSGNVYTGEWSMGRINGRGVLEYHDGDRYEGEWKDGRMHGKGTYCYSNGDKYEGEWKEDKRHGKGVVVYAAPDGCVSEKYDGEWNEGRMQGWGKYFYADGGVYEGEWVDGRMHGRGTYVFPNGNKYEGEWVEDRKDGYGILLYTNGERYEGYWHLDKAHGKGTLTFLQGDRYVGEWHYGKKHGHGVLSYSNGDTYDGEWRDDDAWGYGVLQYANGCRYEGEWAEDRRHGKGLLVLPDGSSYEGSFAHGKKDGPGKIILKDGSMYIGTWKDGVIVGQGEFRLSENCDLSNPDY”, for which the “soluble on expression in E. coli” value was “soluble”.
